Values joined by “and” are separate entries in the source; they are usually repeats but may differ in a detail not shown here. Equal entries are not always repeated.
Assays:
[1] = target: T1, human CD3 expressed on cells (Jurkat cells, human T cells) (human, UniProt P07766 22-207); experiment: flow cytometry on human T cells, 167 nM antibody
T1 construct: Endogenous CD3 complex on cells; also called CD3 positive Jurkat cells; Jurkat (CD3+)

[2] = target: T1, human CD3 expressed on cells (Jurkat …); experiment: cell-based or functional assay
[3] = target: Mature human CD3e(22-118)_FLAG-chLys_Avi (human); experiment: BLI (Octet), bispecific captured, antigen as analyte
Mature human CD3e(22-118)_FLAG-chLys_Avi (human), sequence (chain, as listed by the source limits assumed): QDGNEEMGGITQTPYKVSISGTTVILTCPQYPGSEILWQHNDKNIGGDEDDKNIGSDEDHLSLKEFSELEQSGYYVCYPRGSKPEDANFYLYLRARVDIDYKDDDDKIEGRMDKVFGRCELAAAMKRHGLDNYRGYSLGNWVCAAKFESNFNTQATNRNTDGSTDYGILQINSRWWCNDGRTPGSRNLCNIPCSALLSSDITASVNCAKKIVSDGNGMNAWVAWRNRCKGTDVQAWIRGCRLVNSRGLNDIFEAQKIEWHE
Protocol: Sensorgrams were evaluated with Data Analysis Software v 10 (Octet/fortébio). All sensorgrams were fitted to a 1:1 binding model to determine kₒₙ and koff rate constants, which were used to calculate the KD value. For kinetic profiles deviating from the expected 1:1 binding, the sensorgrams were evaluated using a best approximation to the monovalent kinetics, and results marked with comment “heterogeneous binding”.

[4] = target: T2, Mature human CD3e(22-49)_Fc2(K105-K330) (human); experiment: ELISA, antigen coated on plate
T2 construct: also called hCD3e(22-49)-Fc2(K105-K330); recombinant human CD3e (22-49)-Fc2 (K105-K330)
Protocol: (§1) Bispecific Fab₂-Fc-scFv antibodies according Example 1.2 were tested for their ability to bind to recombinant human and cynomolgus CD3epsilon antigen in ELISA. 5 nM of recombinant human CD3e (22-49)-Fc2 (K105-K330) (SEQ ID NO: 41) or 1 nM of recombinant cynomolgus CD3e (22-49)-Fc2(K105-K330) (SEQ ID NO: 42) were coated on Maxisorp plates (Nunc, #460518). Coated plates were blocked with 5% skim milk in PBS. Antibodies were serially diluted in PBS containing 0.5% skim milk and 0.5% Tween-20. […] EC₅₀ values were calculated using 4-parameter non-linear regression analysis in Prism software (GraphPad Software Inc.)

[5] = target: T3, Mature cynomolgus CD3e(22-49)_Fc2(K105-K330) (cynomolgus); experiment: ELISA, antigen coated on plate
T3 construct: also called cyCD3e(22-49)-Fc2(K105-K330); recombinant cynomolgus CD3e (22-49)-Fc2(K105-K330)
Protocol: as §1

[6] = target: T1, human CD3 expressed on cells (Jurkat …); experiment: cell-based or functional assay; remark: listed apart in the source
[7] = target: Mature human CD3e(22-118)_FLAG-chLys_Avi (human); experiment: BLI (Octet), bispecific captured, antigen as analyte; remark: listed apart in the source
Protocol: (§2) Affinity determination by determining kinetic rate constants was performed on an Octet HTX (FortéBIO, Sartorius AG) instrument. […] The association phase was recorded for 180 s, followed by a dissociation phase of 300 s. After each cycle, the biosensors were regenerated two times with 10 mM Glycine HCl pH 1.7 to remove bound ligand/antibody complex, while maintaining the integrity of the capture surface. Between regeneration steps, biosensors were washed with assay buffer for 20 s. Sensorgrams were evaluated with Data Analysis Software v 10 (Octet/fortébio). All sensorgrams were fitted to a 1:1 binding model to determine kₒₙ and koff rate constants, which were used to calculate the KD value. For kinetic profiles deviating from the expected 1:1 binding, the sensorgrams were evaluated using a best approximation to the monovalent kinetics, and results marked with comment “heterogeneous binding”.

[8] = target: Mature human CD3e(22-118)_FLAG-chLys_Avi (human); experiment: BLI (Octet), bispecific captured, antigen as analyte; heterogenous binding
Protocol: as §2

[9] = target: T1, human CD3 expressed on cells (Jurkat …); experiment: cell-based or functional assay; remark: listed apart in the source
[10] = target: T1, human CD3 expressed on cells (Jurkat …); experiment: flow cytometry on Jurkat cells
Protocol: Target cells were mixed with the bispecific antibodies serially diluted (final concentration: 0.1 nM-200 nM) in D-PBS (Gibco) containing 3% fetal bovine serum (Sigma, #F7524) and incubated for 1 h on ice. Cells were washed 2 times in D-PBS (Gibco) containing 3% fetal bovine serum (Sigma, #F7524) and 0.02% […]. […] Antibody staining was measured using FACS Array (Beckton Dickinson) or IntelliCyt iQue flow cytometer and analyzed in FlowJo or ForeCyt (IntelliCyt) softwares, respectively. EC₅₀ values were calculated using 4-parameter non-linear regression analysis in Prism software (GraphPad Software Inc.).

T1 sequence (P07766 22-207): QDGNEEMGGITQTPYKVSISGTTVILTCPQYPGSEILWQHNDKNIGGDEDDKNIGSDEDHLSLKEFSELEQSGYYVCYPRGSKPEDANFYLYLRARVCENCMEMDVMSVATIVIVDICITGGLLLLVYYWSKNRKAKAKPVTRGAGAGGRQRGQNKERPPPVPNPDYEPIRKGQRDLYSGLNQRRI

B1: Bisslg_08_#GP (bispecific antibody)
VH: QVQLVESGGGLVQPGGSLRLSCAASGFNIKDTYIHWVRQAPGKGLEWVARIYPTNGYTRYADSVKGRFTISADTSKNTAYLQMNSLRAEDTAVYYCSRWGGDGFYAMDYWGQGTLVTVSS
VL: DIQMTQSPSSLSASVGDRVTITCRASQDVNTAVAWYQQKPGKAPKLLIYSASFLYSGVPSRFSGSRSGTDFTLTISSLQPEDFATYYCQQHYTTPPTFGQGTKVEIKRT
scFv: QSVLTQPPSASGTPGQRVTISCSGSSSNIGSNYVYWYQQLPGTAPKLLIYRNNQRPSGVPDRFSGSKSGTSASLAISGLRSEDEADYYCAAWDHHRSGAVFGGGTKLTVLGQAQPAAPAPNAHEAPAPAQGSEVQLVESGGGLVQPGGSLRLSCAASGFTFSSYWMSWVRQAPGKGLEWVANIKQDGSEKYYVDSVKGRFTISRDNAKNSLYLQMNSLRAEDTAVYYCARGYSAEFAHRSGLDVWGQGTLVTVSS
notes: Format as Bisslg_08_#1: aglycosylated human IgG1, AEASS Fc, knob-into-hole; also called CD3-MABGP in the bispecific 2+1 Fab2-Fc-scFv format; grandparent antibody CD3-MABGP
B1 was tested, and the “T cell binding @ antibody conc. of 167 nM [S/BG]” value [1] was 1.4 S/BG, the “RGA @ antibody conc. of 1 nM [S/BG] SKBR3 (Jurkat NFAT reporter gene assay)” value [2] was 1 S/BG and the Kd [3] was 240 nM. It also gave an EC50 [4] of 248 nM and an EC50 [5] of 369 nM.

B2: BissIg_18_opt_VH#1 (bispecific antibody, V domains shown)
VH 1: not shown
VL 1: not shown
VH 2: EVQLVESGGGLVQPGGSLRLSCAASGFSFGSHYMSWVRQAPGKGLEWVANINQIGYSSYYVESVKGRFTISRDNAKNSLYLQMNSLRAEDTAVYYCARGYSAEFAHRSGLDVWGQGTLVTVSS
VL 2: QSVLTQPPSASGTPGQRVTISCSGSSSNIGSNYVYWYQQLPGTAPKLLIYRNNQRPSGVPDRFSGSKSGTSASLAISGLRSEDEADYYCAAWDHHRSGAVFGGGTKLTVLGQ
notes: 1+1 IgG1 made by Fab-arm exchange; AEASS Fc; F405L in the CD3 half, K409R in the HER2 half
B2 was tested, and the “T cell mediated killing MCF-7 [T cells] IC50 [pM]” value [6] was 210 pM, the “T cell mediated killing SKBR3 [PBMCs] IC50 [pM]” value [6] was 15 pM and the koff [7] was 0.0044 s⁻¹. The kon [7] was 250000 M⁻¹ s⁻¹, the Kd [8] was 17 nM and the “Reporter gene assay MCF-7 EC50” value [9] was 0.33 nM. For the same binder, the “Reporter gene assay SKOV3 EC50” value [9] was 0.18 nM and the EC50 [10] was 9 nM.

B3: BissIg_18_opt_cc# (bispecific antibody, human IgG1, kappa, lambda)
heavy 1: not shown
light 1: not shown
heavy 2: EVQLVESGGGLVQPGGSLRLSCAASGFSFGSHYMSWVRQAPGKGLEWVANINQIGYSSYYVESVKGRFTISRDNAKNSLYLQMNSLRAEDTAVYYCARGYSAEFAHRSGLDVWGQGTLVTVSSASTKGPSVFPLAPSSKSTSGGTAALGCLVKDYFPEPVTVSWNSGALTSGVHTFPAVLQSSGLYSLSSVVTVPSSSLGTQTYICNVNHKPSNTKVDKRVEPKSCDKTHTCPPCPAPEAEGAPSVFLFPPKPKDTLMISRTPEVTCVVVDVSHEDPEVKFNWYVDGVEVHNAKTKPREEQYNSTYRVVSVLTVLHQDWLNGKEYKCKVSNKALPSSIEKTISKAKGQPREPQVYTLPPSREEMTKNQVSLTCLVKGFYPSDIAVEWESNGQPENNYKTTPPVLDSDGSFLLYSKLTVDKSRWQQGNVFSCSVMHEALHNHYTQKSLSLSPGK
light 2: not shown
B3 was tested, and the “T cell mediated killing MCF-7 [T cells] IC50 [pM]” value [6] was < 10 pM and 13.2 pM, the “T cell mediated killing SKBR3 [PBMCs] IC50 [pM]” value [6] was 1.8 pM and the koff [7] was 0.0011 s⁻¹. The kon [7] was 1.2e+06 M⁻¹ s⁻¹, the Kd [8] was 0.9 nM and the “Reporter gene assay MCF-7 EC50” value [9] was less than 0.2 nM. For the same binder, the “Reporter gene assay SKOV3 EC50” value [9] was 0.07 nM and the EC50 [10] was 7 nM.

B4: BissIg_18_opt_VL (bispecific antibody, V domains shown)
VH 1: not shown
VL 1: not shown
VH 2: EVQLVESGGGLVQPGGSLRLSCAASGFTFSSYWMSWVRQAPGKGLEWVANIKQDGSEKYYVDSVKGRFTISRDNAKNSLYLQMNSLRAEDTAVYYCARGYSAEFAHRSGLDVWGQGTLVTVSS
VL 2: QSVLTQPPSASGTPGQRVTISCSGSSSNIGSNYVYWYQQLPGTAPKLLIYRNNQRPSGVPDRFSGSKSGTSASLAISGLRSEDEADYYCAGWSRSLHGAVFGGGTKLTVLGQ
notes: as for B2
Binder B4 has a koff [7] of 0.0041 s⁻¹, a kon [7] of 150000 M⁻¹ s⁻¹ and a Kd [8] of 28 nM.

From patent US20250206819A1 (MorphoSys, published 2025)
